Each block holds one binder with its values, some of them ahead of it.
Assays:
human kallikrein-2 (hK2) [1] = target: T1, human kallikrein-2 (hK2) (human, UniProt P20151 25-261); experiment: SPR, Biacore 3000, hK2 on CM4 chip, mean KD from kon and koff
T1 construct: The mature protein is said to be underlined, but the underlining is not recoverable from the text; In the assay hK2 was amine-coupled to a CM4 chip; also called human glandular kallikrein 2; antigen hK2
Method: (§1) All binding experiments were performed on CM4 chip on a Biacore 3000 instrument. The chip and all the reagents needed for activation, immobilization, deactivation, binding and regeneration were purchased from GE Healthcare and used according to the guidelines from the manufacturer.

human kallikrein-2 (hK2) [2] = target: T1, human kallikrein-2 (hK2); experiment: SPR, Biacore 3000, hK2 on CM4 chip, mean of channels fc2 and fc3
Method: as §1
(§2) The dissociation phase data was fitted and the dissociation rate constants (koff) were estimated (see Table 2).

human kallikrein-2 (hK2) [3] = target: T1, human kallikrein-2 (hK2); experiment: SPR, Biacore 3000, hK2 on CM4 chip, antibody 6.25-100 nM, mean of 18/18 fitted experiments
Method: as §1
(§3) In order to estimate the association rate constants, the dissociation rate constants (Table 2) were used in the fitted equations.
(§4) All fitted data was used in order to calculate an average value of the association rate constant and the standard deviation for each antibody (see Table 3).

human kallikrein-2 (hK2) [4] = target: T1, human kallikrein-2 (hK2); experiment: SPR, Biacore 3000, hK2 amine-coupled on CM4 chip, channel fc2, 50 nM antibody, 480 min dissociation
Method: as §1, §2

human kallikrein-2 (hK2) [5] = target: T1, human kallikrein-2 (hK2); experiment: SPR, Biacore 3000, hK2 amine-coupled on CM4 chip, channel fc3, 50 nM antibody, 480 min dissociation
Method: as §1, §2

human kallikrein-2 (hK2) [6] = target: T1, human kallikrein-2 (hK2); experiment: SPR, Biacore 3000, hK2 on CM4 chip, antibody 6.25-100 nM, mean of 15/18 fitted experiments
Method: as §1, §3, §4

human kallikrein-2 (hK2) [7] = target: T1, human kallikrein-2 (hK2); experiment: SPR, Biacore 3000, hK2 on CM4 chip, antibody 6.25-100 nM, mean of 17/18 fitted experiments
Method: as §1, §3, §4

T1 sequence (P20151 25-261 limits assumed): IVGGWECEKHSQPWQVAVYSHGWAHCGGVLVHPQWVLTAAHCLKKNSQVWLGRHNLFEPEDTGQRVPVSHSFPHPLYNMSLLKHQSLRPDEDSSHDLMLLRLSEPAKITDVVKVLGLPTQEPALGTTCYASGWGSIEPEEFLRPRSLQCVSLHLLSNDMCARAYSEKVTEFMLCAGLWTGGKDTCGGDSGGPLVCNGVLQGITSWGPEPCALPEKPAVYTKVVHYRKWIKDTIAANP

B1: h11B6-DFO (humanised 11B6 conjugated with deferoxamine) (antibody, human IgG1, kappa, V domains shown)
VH: QVQLQESGPGLVKPSDTLSLTCAVSGNSITSDYAWNWIRQPPGKGLEWIGYISYSGSTTYNPSLKSRVTMSRDTSKNQFSLKLSSVTAVDTAVYYCATGYYYGSGFWGQGTLVTVSS
VL: DIVLTQSPDSLAVSLGERATINCKASESVEYFGTSLMHWYQQKPGQPPKLLIYAASNRESGVPDRFSGSGSGTDFTLTISSLQAEDVAVYYCQQTRKVPYTFGQGTKLEIKR
modifications: DFO (deferoxamine) chelator coupled; residues and chain not stated
notes: This is the h11B6 IgG1/kappa carrying DFO; also called h1166-DFO; DFO-h11B6
Kd (human kallikrein-2 (hK2) [1]): 540 pM
koff (human kallikrein-2 (hK2) [2]): 5.7e-05 s⁻¹
kon (human kallikrein-2 (hK2) [3]): 111000 M⁻¹ s⁻¹
koff (human kallikrein-2 (hK2) [4]): 5.8e-05 s⁻¹
koff (human kallikrein-2 (hK2) [5]): 5.5e-05 s⁻¹

B3: h11B6-DTPA (humanised 11B6 conjugated with DTPA chelator) (antibody, V domains shown)
VH: B1 VH
VL: B1 VL
modifications: DTPA chelator coupled; residues and chain not stated
notes: This is the h11B6 IgG1/kappa carrying a chelator; also called h1166-DTPA; H1166-DTPA
Kd (human kallikrein-2 (hK2) [1]): 930 pM
koff (human kallikrein-2 (hK2) [2]): 0.000127 s⁻¹
kon (human kallikrein-2 (hK2) [7]): 182000 M⁻¹ s⁻¹
koff (human kallikrein-2 (hK2) [4]): 6.3e-05 s⁻¹
koff (human kallikrein-2 (hK2) [5]): 0.000191 s⁻¹

Results, then the binder that gave them:

Kd (human kallikrein-2 (hK2) [1]): 650 pM
koff (human kallikrein-2 (hK2) [2]): 6.7e-05 s⁻¹
kon (human kallikrein-2 (hK2) [6]): 117000 M⁻¹ s⁻¹
koff (human kallikrein-2 (hK2) [4]): 6.4e-05 s⁻¹
koff (human kallikrein-2 (hK2) [5]): 6.9e-05 s⁻¹
B2: humanised 11B6 antibody (h11B6), IgG1/kappa (antibody, V domains shown)
VH: B1 VH
VL: B1 VL
notes: Expressed transiently in HEK293 cells; also called h1186

Kd (human kallikrein-2 (hK2) [1]): 190 pM
koff (human kallikrein-2 (hK2) [2]): 3.4e-05 s⁻¹
kon (human kallikrein-2 (hK2) [3]): 248000 M⁻¹ s⁻¹
koff (human kallikrein-2 (hK2) [4]): 1.9e-05 s⁻¹
koff (human kallikrein-2 (hK2) [5]): 4.9e-05 s⁻¹
B4: murine 11B6 antibody (m11B6), parent murine anti-hK2 monoclonal antibody (antibody, mouse IgG1, kappa, V domains shown)
VH: DVQLQESGPGLVKPSQSLSLTCTVTGNSITSDYAWNWIRQFPGNRLEWMGYISYSGSTTYSPSLKSRFSITRDTSKNQFFLQLNSVTPEDTATYFCATGYYYGSGFWGQGTLVTVSS
VL: DIVLTQSPASLAVSLGQRATISCRASESVEYFGTSLMHWYRQKPGQPPKLLIYAASNVESGVPARFSGSGSGTDFSLNIQPVEEDDFSMYFCQQTRKVPYTFGGGTKLEIKR
notes: Whole murine IgG obtained from the University of Turku; also called mAb 11B6; ml 1B6
